In patent US11497796B2, “Agents directed against a cis RGMa/neogenin interaction or lipid rafts and use of the same in methods of treatment” (UNIVERSITY HEALTH NETWORK, priority 2013, dated 2022):

B1: 4Ig: four immunoglobulin-like domains of Neogenin, amino acids 1 to 383 of Accession No. AAC59662 (SEQ ID NO:1) (protein, listed as Gallus gallus)
chain: RSGPRSPLTGSVVRTFTPFYFLVEPMDILSVRGASVIMNCSSYCETPPKIEWKKDGTLLNLVSDDRRQLLPDGSLLINSVVHSKHNKPDEGYYQCVATVESLGSIVSRTAKLTVAGLPRFTSQPELSSVYKGNSAILNCEVNVDLAPFVRWEQDRQPLSLDDRVFKLPSGALLIGNATDTDGGFYRCVIESGGTPKYSEEAELKILPDPEEPQSLVFVRQPSSLTKVTGQNAVFPCVAGGFPTPYVRWTKNGEELITEDSERFALRAGGSLLISDVTEEDVGTYTCIADNENETIEAQAELAVQVPPEFLKRPANIYAHESMDIVFECEVTGKPTPTVKWVKNGDVVIPSDYFKIVKEHNLQVLGLVKSDEGFYQCIAENDVGNAQAGAQLIILDLDVAIPTLPPTSLTSATNDHLAPATTGPLPTAPRDVVATLVSTRFIRLTWRTPVSDPQGDNLTYSIFYTKEGINRERVENTSRPGETQVMIQNLMPETVYVFRVVAQNKHGHGESSAPLKVATQPEVQLPGPAPNIRAYAGSPTSVTVTWETPLSGNGEIQNYKLYYMEKGQDSEQDVDVAGLSYTITGLKKYTEYSFRVVAYNKHGPGVSTQDVVVRTLSDVPSAAPQNLTLEARNSKSIMLHWQPPPAGTHSGQITGYKIRYRKVSRKSDVTESVGGTQLFQLIEGLERGTEYNFRIAAMTVNGTGPATDWVSAETFESDLDESRVPEVPSSLHVRPLVTSIVVSWTPPENQNIVVRGYAIGYGIGSPHAQTIKVDYKQRYYTIENLDPSSHYVITLKAFNNVGEGIPLYESAVTRPHSDTSEVDLFVINAPYTPVPDPSPMMPPVGVQASILSHDTIRITWADNSLPKNQKITDARYYTVRWKTNIPANTKYKTANATTLSYLVTGLKPNTLYEFSVMVTKGRRSSTWSMTAHGTTFELVPTSPPKDVTVVSKEGKPRTIIVNWQPPSEANGKITGYIIYYSTDVNAEIHDWVIEPVVGNRLTHQIQELTLDTPYYFKIQARNSKGMGPMSEAVQFRTPKAESSDKMPNDQASGSAGKGSRPVDVGPDYKPPLSGSNSPHGSPTSPLDSNMLLVIIVSVGVITIVIVVIVAVFCTRRTTSHQKKKRAACKSVNGSHKYKGNSKDVKPPDLWIHHERLELKPIDKSPDPNPIMTDTPIPRNSQDITPVDNSMDSNIHQRRNSYRGHESEDSMSTLAGRRGMRPKMMMPFDSQPPQPVISAHPIHSLDNPHHHFHSGSLASPTRSYLHHQVSPWPVGTSMSHSDRANSTESVRNTPSSDTMPASSSQPCADHQDPDSSSGAYLGSAQEEDAAQSLPTAHVRPSHPLKSFAVPAVPAAGSAYDPTLPSTPLLTQQAPSHPVHSVKTASIGTLGRTRPPMPVVVPSAPDVQETTRMLEDSESSYEPDELTKEMAHLEGLMKDLNAITTA
modifications: Neogenin - Accession No. AAC59662

What was measured:
photoreceptor cells = assay: Photoreceptor survival in rd1 mice (retinitis pigmentosa model); assay type: in vivo, mouse
Method: The rd1 mouse model is a model for human RP and carried a loss-of-function mutation in the gene encoding for the β-subunit of the rod photoreceptor cGMP phosphodiesterase-6.2. This loss-of-function mutation led to an accumulation of cGMP, which caused photoreceptor cell death.
In these studies, intraocular injection of the 4Ig (2 μg/μl) peptide at P9 and P15 was performed and animals were sacrificed at P21 to examine cell survival. […] Injection of 4Ig increased outer nuclear layer (ONL) thickness to about 6 cells (FIG. 19). This measurement was the average thickness of the ONL.
As described above, cholesterol depletion removes lipid rafts. Specifically, mice were treated with daily […] (IP) injections of MβCD from P9 to P21.
To examine the effect of reducing cholesterol synthesis on cell survival, AY-9944 was examined in rd1 mice (FIGS. 20 and 21). Rd1 mice were treated using two intra-peritoneal injections of AY-9944, at P9 and P15 and sacrificed at P21.

spinal cord injured rats = assay: Spinal cord injury (clip compression), functional analysis (BBB, motor subscore, ladder-walk); assay type: in vivo, rat; settings: for functional recovery (BBB score and motor subscore) compared to controls: 4Ig IV or MβCD IP
Method: The spinal cord was injured by clip compression at spinal cord level T8 with a 20 g force. The 4Ig or vehicle was injected intraspinally immediately following SCI. 2 injections (250 ng/μL, 3 μL each) were made 1 mm rostral and 1 mm caudal to the lesion site and adjacent to the midline vein. Immediately following SCI, the 4Ig treated rats also received a 1 mg/kg dose of 4Ig intravenously (i.v.) via the intrajugular vein and subsequent i.v. injections weekly for 2 more weeks. Rats in the MβCD group received intraperitoneal (i.p.) injection of MβCD at 1000 mg/kg/week immediately following SCI and then daily i.p. injections until sacrifice. Control rats received equivalent vehicle volumes as described above.
To assess local delivery of 4Ig, 19 adult female Wistar rats were injured and injected rostral and caudal to the lesion site with 4Ig or PBS. Immediately after the intraspinal injections, 4Ig or PBS was delivered intrathecally and then continuously for 14 days (0.5 μL/hour) via the catheter and pump system.
Functional tests were performed before the injury, 1 day, and then weekly for 6 weeks post-SCI. Locomotor function was evaluated using the BBB locomotor rating scale. A score of 0 indicates no hindlimb movement, a score of 21 indicates unimpaired locomotion as observed in Control. Motor subscores were determined to assess toe clearance, predominant paw position and absence of instability. A maximal motor subscore of 7 means normal locomotion.
Ladder-walk analysis was done to assess fine motor functions. At 1 week post-SCI and weekly thereafter, rats with a BBB score greater than 10 were placed on the horizontal ladder-walk apparatus and 3 test runs were recorded. Recordings were analyzed in slow motion; the number of footfalls per hindlimb was recorded and the average was calculated for each rat per week.
Pre-operatively, 32 adult female Wistar rats (Charles River, St. Constant, QC, 200-300 g) were acclimatized and trained for baseline behavioral assessment. Rats were divided into 4 groups (n=8/group): 1) MBCD (i.p.); 2) vehicle control (i.p); 3) 4Ig (i.v. and intraspinal); 4) vehicle control (i.v. and intraspinal). Rats were anesthetized by inhalation of 2% isofluorane in combination with a mixture of nitrous oxide and oxygen (1:2, v/v). The spinal cord was exposed by laminectomy and a clip compression injury was made at spinal cord level T8 with a 20 g force. This was a clinically relevant model of SCI reflecting human pathology. n the 4Ig and equivalent control group, 4Ig or vehicle was injected intraspinally immediately following SCI. A total of 2 injections (250 ng/μL, 3 μL each) were made 1 mm rostral and 1 mm caudal to the lesion site and adjacent to the midline vein. Injections were made stereotactically with the aid of an operating microscope using a motorized microinjector at a rate of 1.5 μl/min with a 10 μl Hamilton syringe and a customized 32 G needle. The needle was left in place for an additional 2 min after injection to prevent leakage. The overlying muscle and skin were sutured with 3-0 vicryl sutures (Johnson and Johnson, Peterborough ON, Canada).
Immediately following SCI, the 4Ig treated rats also received a 1 mg/kg dose of 4Ig i.v. via the intrajugular vein and subsequent i.v. injections weekly for 2 more weeks. Rats in the MβCD group received intraperitoneal injection of MβCD at 1000 mg/kg/week immediately following SCI and then daily i.p. injections until sacrifice. Control rats received equivalent volumes as described above. Bladders were evacuated manually 3 times daily until spontaneous voiding was established, and hematuria or urinary tract infection was treated with Clavomax (62.5 mg PO BID for 7 days). The rats were housed singly in a temperature-controlled room at 26° C. with a 12 hour light/dark cycle. Water and food were provided ad libitum. […]

[1] = test system: Neogenin-induced apoptosis in chick tecta; assay: TUNEL assay after Neogenin electroporation; assay type: in vivo; settings: injected into tecta after Neogenin electroporation; for number of TUNEL+ cells: without agent 432±23
Method: (A) HEK293 cells that stably express RGMa (FIG. 11) were transfected with empty plasmid (Ctrl) or Neogenin (Neo). Neogenin induced cell death (arrows) when compared to control. (B) Quantification of cell death in Neogenin-transfected cells that were incubated in BSA (Neo+Ctrl), 4Ig (1 μg/ml), N-Raft (1 μg/ml), Noggin (100 nM), or MβCD (10 mM). […] Data were average±SEM (n=3 independent experiments), *p<0.0001. (C) Representative images and (D) Quantification of cell death in chick E5 tecta electroporated with GFP- and a Neogenin-expression plasmid and then injected with N-RGMa50-99 (Ctrl; 1 μg/ml), 4Ig (1 μg/ml), or N-Raft (1 μg/ml) and subjected to TUNEL assay. […] Data were an average±SEM from 3 different tecta/conditions (*p<0.001). Bar, 100 μm. (E) Representative images and (F) Quantification of retinal whole mounts incubated for 4 days with control peptide (1 μg/ml), 4Ig (1 μg/ml), N-Raft (1 μg/ml), or MβCD (10 mM) and dead cells were stained with Propidium Iodide (PI). Images from 9 whole mounts per condition from 3 independent experiments were taken at the same intensities and the fluorescence measured using ImageJ. […] Bar, 500 μm. (G) Fluorescence micrographs of flat-mounted retinas depicting Fluorogold-labeled retinal ganglion cells (RGCs) in injured retinas at 14 days following axotomy. Control retinas (Ctrl) had few surviving RGCs. 4Ig, N-raft or MβCD increased cell survival. Bar, 200 μm. (H) Representations of the retinal areas selected in our analyses. […] Data were average±SEM (n=6 eyes), *p<0.01.
RGMa was expressed in the developing chick neural tube, and thus, to determine if Neogenin required lipid rafts for its pro-death function in vivo, apoptosis was examined in the neural tubes of chick embryos (E2). Specifically, a GFP-construct was electroporated with plasmids that expressed either Mock or Neogenin and apoptosis was assayed by TUNEL staining.

[2] = intraocular injection at P9 and P15

Molecule | average depth of the ONL (photoreceptor cells; daily injections P9 to P21) | increase in the average thickness of the ONL (photoreceptor cells; daily injections P9 to P21) | photoreceptor survival (photoreceptor cells; daily injections P9 to P21) | number of rods within the Outer Nuclear Layer (anti-Rhodopsin) (photoreceptor cells; injected at P9, P21) | functional recovery (BBB score and motor subscore) compared to controls (spinal cord injured rats; as early as 2-3 weeks post-SCI) | improvement of locomotor recovery vs. control (spinal cord injured rats; older animals (greater than 7 month), post-SCI) | reduction of the number of TUNEL+ cells [1] | number of TUNEL+ cells [1] | outer nuclear layer (ONL) thickness (photoreceptor cells; intraocular injection 2 μg/μl at P9 and P15, P21, control about 2 cells) | increase of ONL thickness compared to control mice (photoreceptor cells; [2]) | number of photoreceptors within the retina vs control (photoreceptor cells; [2]) | hindlimb coordination (footfalls), local application (spinal cord injured rats; intrathecal) | functional recovery (BBB score), local application (spinal cord injured rats; intrathecal, Alzet mini-osmotic pumps, as early as 2-3 weeks post-SCI) | hindlimb coordination, ladder-walk test (footfalls) (spinal cord injured rats; systemic treatment)
methyl-β-cyclodextrin [MβCD, reference compound] | about 6 cells | three-fold | photoreceptor survival was improved | dramatic increase in the number of rods | significant functional recovery | +6.8 BBB points | – | – | – | – | – | – | – | –
N-Raft: peptide spanning amino acids 28-73 of RGMa (SEQ ID NO:2) (SPCKILKCNSEFWAATSGSHHLGAEETPEFCTALRAYAHCTRRTAR; N-Raft - amino acids 28-73 of RGMa) | – | – | – | – | – | – | about 4 fold | 103±8 | – | – | – | – | – | –
B1 | – | – | – | – | significant functional recovery | – | about 18 fold | 23±4 | about 6 cells | more than three-fold | significantly improved the number of photoreceptors | fewer footfalls | significant functional recovery | fewer footfalls
